Assay results taken from patent US10626404B2, “Mutant xylose-metabolizing enzyme and use thereof” (National Institute of Advanced Industrial Science and …, priority 2016, dated 2020).
Where a chain is given by its changes, count along the chain named. Names may count otherwise.

What was measured:
[1] = biological target: T1, Clostridium phytofermentans ISDg xylose isomerase (CpXI, SEQ ID NO: 11) double mutant CpXI-T63I, V162A (Lachnoclostridium phytofermentans, UniProt A9KN98, T63I/V162A); assay: Xylose isomerase activity (kinetic parameters) in cell disruption solution, strain SS120; type: biochemical; details: cell disruptate after 24 h microaerobic fermentation, xylose 10-500 mM, pH 8.0, 30° C.
T1 construct: cell lysate

[2] = biological target: T2, Clostridium phytofermentans ISDg xylose isomerase (CpXI, SEQ ID NO: 11) mutant CpXI-N303T (Lachnoclostridium phytofermentans, UniProt A9KN98, N303T); assay: Xylose isomerase activity (kinetic parameters) in cell disruption solution, strain SS105; type: biochemical; details: cell disruptate after 24 h microaerobic fermentation, xylose 10-500 mM, pH 8.0, 30° C.
T2 construct: cell lysate
From the text: (§1) The created mutant CpXI-V162A gene expression plasmid (Table 3: plasmid No. 31) and CpXI-N303T gene expression plasmid (Table 3: plasmid No. 32) were cleaved with BsiWI and used for transformation of strain SS29. The obtained strains were designated as strain SS104 (Table 4: strain No. 29) and strain SS105 (Table 4: strain No. 30), respectively.

[3] = system: Piromyces sp. E2 xylose isomerase mutant E15D, E114G, E129D, T142S, A177T and V433I; details: mutant vs wild type Piromyces sp. E2 xylose isomerase; NPL 10; cited from earlier work
[4] = biological target: Clostridium phytofermentans ISDg xylose isomerase (CpXI), wild type, SEQ ID NO: 11 (Lachnoclostridium phytofermentans, UniProt A9KN98)
[5] = biological target: T3, Clostridium phytofermentans ISDg xylose isomerase (CpXI, SEQ ID NO: 11) mutant CpXI-V162A, N303T (Lachnoclostridium phytofermentans, UniProt A9KN98, N303T/V162A); assay: Xylose isomerase activity (kinetic parameters) in cell disruption solution, strain SS92; type: biochemical; details: N303T vs wild type CpXI
T3 construct: cell lysate

[6] = biological target: T4, Clostridium phytofermentans ISDg xylose isomerase (CpXI, SEQ ID NO: 11) mutant CpXI-T63I (Lachnoclostridium phytofermentans, UniProt A9KN98, T63I); assay: Xylose isomerase activity (kinetic parameters) in cell disruption solution, strain SS82; type: biochemical; details: T63I vs wild type CpXI
T4 construct: cell lysate

[7] = substrate: OC1OC[C@@H](O)[C@H](O)[C@H]1O; assay: cells, lysate or membranes; type: biochemical, Clostridium phytofermentans ISDg; details: cell disruptate after 24 h microaerobic fermentation, xylose 10-500 mM, pH 8.0, 30° C.
[8] = substrate: OC1OC[C@@H](O)[C@H](O)[C@H]1O; assay: cells, lysate or membranes; type: biochemical, Clostridium phytofermentans ISDg; details: cell disruptate after 24 h microaerobic fermentation, xylose 10-500 mM, pH 8.0, 30° C.; remark: listed apart in the source
From the text: as §1

[9] = substrate: OC1OC[C@@H](O)[C@H](O)[C@H]1O; assay: cells, lysate or membranes; details: other: wild type (SS81), cell disruptate after 24 h microaerobic fermentation, xylose 10-500 mM, pH 8.0, 30° C.

Q: Which results are given for `OC1OC[C@@H](O)[C@H](O)[C@H]1O` (stereo partly drawn) [xylose, D-xylose]?
A: Vmax value [1]: 0.104 ± 0.003 μmol mg protein^−1 min^−1; Vmax value [2]: 0.030 ± 0.001 μmol mg protein^−1 min^−1; Km value compared with the wild type [3]: approximately twice as high; Vmax value larger than the wild type [3]: 77%; Vmax value [4]: 0.66 μmol/mg protein/min; Vmax value compared with the wild type [5]: equivalent to the wild type; metabolic activity (Vmax) higher than the wild type [6]: 38%

B1: Clostridium phytofermentans ISDg xylose isomerase (CpXI, SEQ ID NO: 11) mutant CpXI-T63I (Lachnoclostridium phytofermentans ISDg; T63I) (protein)
chain: MKNYFPNVPEVKYEGPNSTNPFAFKYYDANKVVAGKTMKEHCRFALSWWHTLCAGGADPFGVITMDRTYGNITDPMELAKAKVDAGFELMTKLGIEFFCFHDADIAPEGDTFEESKKNLFEIVDYIKEKMDQTGIKLLWGTANNFSHPRFMHGASTSCNADVFAYAAAKIKNALDATIKLGGKGYVFWGGREGYETLLNTDLGLELDNMARLMKMAVEYGRANGFDGDFYIEPKPKEPTKHQYDFDTATVLAFLRKYGLEKDFKMNIEANHATLAGHTFEHELAMARVNGAFGSVDANQGDPNLGWDTDQFPTDVHSATLAMLEVLKAGGFTNGGLNFDAKVRRGSFEFDDIAYGYIAGMDTFALGLIKAAEIIDDGRIAKFVDDRYASYKTGIGKAIVDGTTSLEELEQYVLTHSEPVMQSGRQEVLETIVNNILFR
notes: cell lysate
Q: With B1 as the molecule, how does the Km ([7]; other: T63I (SS82)) read?
A: The Km was 29.2 mM.

Q: And the Vmax ([7]; other: T63I (SS82))?
A: The Vmax was 0.091 µmol/min/mg.

B2: Clostridium phytofermentans ISDg xylose isomerase (CpXI, SEQ ID NO: 11) double mutant CpXI-T63I, V162A (Lachnoclostridium phytofermentans ISDg; T63I/V162A) (protein)
chain: B1 chain with V162A
notes: cell lysate
Q: For B2, which Km ([7]; other: T63I, V162A (SS120)) is on record?
A: The Km was 34.4 mM.

Q: What about the Vmax ([7]; other: T63I, V162A (SS120)) of the same molecule?
A: The Vmax was 0.104 µmol/min/mg.

B3: Clostridium phytofermentans ISDg xylose isomerase (CpXI, SEQ ID NO: 11) mutant CpXI-V162A (Lachnoclostridium phytofermentans ISDg; V162A) (protein)
chain: B1 chain with I63T, V162A
notes: cell lysate
Q: With B3 as the molecule, how does the Km ([8]; other: V162A (SS104)) read?
A: Its Km is 29.5 mM.

Q: And the Vmax ([8]; other: V162A (SS104))?
A: The Vmax was 0.063 µmol/min/mg.

B4: Clostridium phytofermentans ISDg xylose isomerase (CpXI), wild type, SEQ ID NO: 11 (Lachnoclostridium phytofermentans ISDg) (protein)
chain: B1 chain with I63T
Q: With B4 as the molecule, how does the Km [9] read?
A: The Km was 46.9 mM.

Q: And the Vmax [9]?
A: Its Vmax is 0.066 µmol/min/mg.

B5: Clostridium phytofermentans ISDg xylose isomerase (CpXI, SEQ ID NO: 11) mutant CpXI-N303T (Lachnoclostridium phytofermentans ISDg; N303T) (protein)
chain: B1 chain with I63T, N303T
notes: cell lysate
Q: For B5, which Km ([8]; other: N303T (SS105)) is on record?
A: The Km was 19.1 mM.

Q: And the Vmax ([8]; other: N303T (SS105))?
A: The Vmax was 0.03 µmol/min/mg.

B6: Clostridium phytofermentans ISDg xylose isomerase (CpXI, SEQ ID NO: 11) mutant CpXI-V162A, N303T (Lachnoclostridium phytofermentans ISDg; N303T/V162A) (protein)
chain: B1 chain with I63T, V162A, N303T
notes: cell lysate
Q: What does the source list for B6?
A: Km ([7]; other: V162A, N303T (SS92)): 28.4 mM; Vmax ([7]; other: V162A, N303T (SS92)): 0.066 µmol/min/mg
